From US20070269440A1, “Stimulators of osteoblastogenesis and applications of the same” (Board of Trustees of the University of Arkansas, priority 2006, published 2007)

Key:
[1] = test system: distracted tibia of 21-month-old C57BL6 mice; test: Distraction osteogenesis in aged mice, new bone in DO gap by histology; format: in vivo, mouse; settings: 21-month old mice, sTNF-RI 8.0 mg/kg s.c. every other day, 3-day latency, 14 days of distraction; control 31.2±12.4%, p<0.009
Source text: After radiography, the distracted tibiae were decalcified in 5% formic acid. The specimens were paraffin-embedded and cut into 5-7 micron longitudinal (coronal) sections on a microtome (Leitz 1512, Wetzlar, Germany) for staining (hematoxylin & eosin). The sections chosen for analysis were selected to represent a central or near central gap location. This was accomplished by choosing slides that contained all four full thickness cortices with intact marrow spaces on both the proximal and distal ends of the distraction gap. All organized osteoid/sinusoid columns were defined as new bone. We defined periosteal new bone as that outside of each cortex and endosteal new bone as that within the cortices. […] The distraction gap area was outlined from the outside corners of the two proximal and the two distal cortices forming a quadrilateral region of interest, and the area of that region (gap area) was recorded. Both the proximal and distal endosteal new bone matrix, which is easily distinguished from the central fibrous tissue at the PMF, was outlined and the area recorded (new bone area). The percentage of new bone within the distraction gap was calculated by dividing new bone area/gap area (8, 9-11). […]

[2] = test system: distracted tibia of 21-month-old C57BL6 mice; test: Distraction osteogenesis in aged mice, new bone in DO gap by single-beam radiography; format: in vivo, mouse; settings: 21-month old mice, sTNF-RI 8.0 mg/kg s.c. every other day, 3-day latency, 14 days of distraction; control 27.3±8.4%, p<0.038
Source text: For initial radiography a Xerox Micro 50 closed system radiography unit (Xerox, Pasadena, Calif.) was used at 40 kilovolts (3 mA) for 20 seconds with Kodak X-OMAT film to radiograph the specimens. For quantitation, the radiographs and histology slides are video recorded by radio camera under low power (1.25× objective) microscopic magnification and transferred into a computer (Macintosh IIx Image 1.28c). The radiographs allow for quantitation of mineralized bone within the distraction gap. The measured distraction gap area was outlined from the outside corners of the two proximal and the two distal cortices forming a quadrilateral region of interest. The mineralized new bone area in the gap was determined by outlining the regions with radiodensity equivalent to or greater than the adjacent medullary bone. Mean pixel density of the defined distraction gap was measured using NIH Image on an arbitrary 256 degree scale. […] The percentage of new mineralized bone area within the distraction gap (% new bone) was calculated by dividing mineralized bone area/gap area. (6, 7).
Twenty-four 21-month-old C57BL6 mice underwent placement of an external fixator and osteotomy to the left tibia. The surgeries were completed over a four-day period. After surgeries there were eleven mice in the control group (one died during surgery) and twelve mice in the group to be treated with sTNF-RI. […]

B1: sTNF-RI: soluble TNF receptor Type I, a TNF blocker (TNF antagonist) (protein, UniProt P19438 30-211, looked up)
extracellular domain: LVPHLGDREKRDSVCPQGKYIHPQNNSICCTKCHKGTYLYNDCPGPGQDTDCRECESGSFTASENHLRHCLSCSKCRKEMGQVEISSCTVDRDTVCGCRKNQYRHYWSENLFQCFNCSLCLNGTVHLSCQEKQNTVCTCHAGFFLRENECVSCSNCKKSLECTKLCLPQIENVKGTEDSGTT
modifications: extracellular domain
Mineralization of the DO gap, as measured histologically (% of the distraction gap) [1]: 76.1±7.5 % SEM | Mineralization of the DO gap, as measured from the radiographs (% of the distraction gap) [2]: 55.2±8.8 % SEM
